Test results taken from patent US20210252150A1.

Assays:
Experiment in all cases: ELISA
[1] = molecular target: HA of A/Texas/36/1991 (H1N1) (influenza A virus (H1N1))
[2] = molecular target: HA of A/Texas/50/2012 (H3N2) (influenza A virus (H3N2))
[3] = molecular target: HA of A/Solomon Islands/03/2006 (H1N1) (influenza A virus (H1N1))

Measured: EC50 fold over wild-type rFluA-20

B1: rFluA-20 heavy chain mutant Y100aA (antibody, V domains shown)
VH: QVQLQESGPGLVKPSETLSLTCSVSGVSVTSDIYYWTWIRQPPGKGLEWIGYIFYNGDTNYNPSLKSRVTMSIDTSKNEFSLRLTSVTAADTAVYFCARGTEDLGACSSGSCPNHWGQGTLVTVSS
VL: DIQMTQSPSSLSASIGDRVTITCRPSQNIRSFLNWFQHKPGKAPKLLIYAASNLQSGVPSRFSGSGSGTEFTLTIRSLQPEDFATYYCQQSYNTPPTFGQGTKVEIK
> 100 fold: all assays above
